These results are taken from the nanobody polyreactivity screen of Harvey et al. (2022).

The data set can be described thus: yeast display, Sf9 membrane polyspecificity reagent, FACS + sequencing; frameworks hold sequencing errors. A digest of the protocol: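 After 36–48 hours of galactose induction, yeast (Saccharomyces cerevisiae BJ5465) displaying a synthetic nanobody library were stained at 4 °C for 1 hour with 10% biotinylated, detergent-solubilized Sf9 membrane reagent. Streptavidin microbeads enriched the stained cells before FACS sorting into low and high (top ~1%) gates on anti-HA and streptavidin fluorescence. Each clone's polyreactivity label reflects its gate of origin.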
As to “QVQLVESGGGLVQAGGSLRLSCAASGSIFPYNVMGWYRQTPGKERELVADIRSDGSTTYADSVKGRFTISRDNAKNTVYLQMNSLKPEDTAVYDCAAVWTYLYSYSLWLEYDYWGQGTQVTVSS”, the “polyreactivity (PSR sort gate)” value is “low polyreactivity”.
In the case of “QVQLVESGGGLVQAGGSLRLSCAASGSIFPYYAMGWNRQAPGKERELVATITSRGGSTYYADSVKGRFTISRDNAKNTVYLQMNSLKPEDTAVYYCAKEYRYYRRRYDYWGQGTQVTVSS”, the “polyreactivity (PSR sort gate)” value is on record as “high polyreactivity”.
With “QVQLVESGGGLVQAGGSLRLSCAASGSIFPYYAMGWSRQAPGKERELVASINQSDGTTYYADSVKGRFTISRDNAKNTVYLQMNSLKPEDTAVYYCAAAYFYWRVDKYYYWGQGTQVTVSS” the entry was “low polyreactivity”.
In the case of “QVQLVESGGGLVQAGGSLRLSCAASGSIFPYYAMGWYRQAPGKEREFVAAITISGGSTYYADSVKGRFTISRDNAKNTVYLQMNSLKPEDTAVYYCAVDRGISVGYTRFDYWGKGTQVTVSS”, the “polyreactivity (PSR sort gate)” value is “low polyreactivity”.
Take “QVQLVESGGGLVQAGGSLRLSCAASGSIFPYYAMGWYRQAPGKEREFVASISSVTSTYADSVKGRFTISRDNAKNTVYLQMNSLKPEDTAVYYCAADRAYSWYSVSRYNYWGQGTQVTVSS”: the “polyreactivity (PSR sort gate)” value is on record as “low polyreactivity”.
For “QVQLVESGGGLVQAGGSLRLSCAASGSIFPYYAMGWYRQAPGKVRELVATISSGGSTKYADSVKGRFTISRDNAKNTVYLQMNSLKPEDTAVYYCAADWYLGPYSWYTEKYNYCGQGTQVTVSS”, the “polyreactivity (PSR sort gate)” value was “high polyreactivity”.
Consider “QVQLVESGGGLVQAGGSLRLSCAASGSIFPYYTMGWYRQAPGKERELVAGISSGGSTNYADSVKGRFTISRDNAKNTVYLQMNSLKPEDTAVYYCNARRYWLRYDYWGQGTQVTVSS”, for which the “polyreactivity (PSR sort gate)” value is on record as “low polyreactivity”.
Regarding “QVQLVESGGGLVQAGGSLRLSCAASGSIFPYYVMGWYRQAPGKERYADSVKGRFTISRDNAKNTVYLQMNSLKPVDTAVYYSAAKVPEPPSLDESDYWGQGSQVTVSS”, the “polyreactivity (PSR sort gate)” value was “low polyreactivity”.
As to “QVQLVESGGGLVQAGGSLRLSCAASGSIFQANAMGWYRQAPGKERELLAAISSRGGSTYYADSVKGRFTISRDNAKNTVYLQMNSLKPGDTAVYYCAADSIQYTARPYDYWGQGTQVTVSS”, the “polyreactivity (PSR sort gate)” value is “low polyreactivity”.
With “QVQLVESGGGLVQAGGSLRLSCAASGSIFQDNTMGWYRQAPGKESELVAAISWSATSTYYADSVKGRFTISRDNAKNTVYLQMNSLNPEDTAVYYCAARYWLFPPGYNYWGQGTQVNVSS”, the “polyreactivity (PSR sort gate)” value is reported as “high polyreactivity”.
The value for “QVQLVESGGGLVQAGGSLRLSCAASGSIFQGNAMGWYRQAPGKERELVAAISQSGGRTYYADSVKGRFTITRDNAKNTVYLQMNSLKPEDTAVYYCNTTKVYRLRFDYWGQGTQVTVSS” was “low polyreactivity”; that for “QVQLVESGGGLVQAGGSLRLSCAASGSIFQGYAMGWYRQAPGKERELVAAITASGGSTYYADSVKGRFTISRDNAMNTVYLQMNSLKPEDTAVYYCAAVRKSVGVKYDFWGQGTQVTVSS” was “high polyreactivity”; that for “QVQLVESGGGLVQAGGSLRLSCAASGSIFQGYAMGWYRQAPGKERELVAVITSSGGSTYYADSVKGRFTISRDNAKNTVYLQMNSLKPEDTAVYYCAVGLLVYSRTYIGQAFFRYNYWGQGTQVTVSS” was “high polyreactivity”.
With “QVQLVESGGGLVQAGGSLRLSCAASGSIFQIYAMGWYRQAPGKERELVAAINSGGITKYADSVKGRFTISRDNAKNTVYLQMNSLKPEDTAVYYCAKRYGWPYGRFDYWGQGTQVTVSS” the entry was “low polyreactivity”; with “QVQLVESGGGLVQAGGSLRLSCAASGSIFQKYAMGWYRQAPGKDRELVAAISWDGGRTYYADSVKGRFTISRDNAKNTVYLQMNSLKPEDTAVYYCYWYDYWGHGTQVTVSS”, “high polyreactivity”.
Turning to “QVQLVESGGGLVQAGGSLRLSCAASGSIFQLNAMGWYRQAPGKERELDAAITSGGSTYYADSVKGRFTISRDNAKNTVYLQMNSLKPEDTAVYYCAAYYLYTTPTSEWLSGYDYWGQGTQVTVSS”, the “polyreactivity (PSR sort gate)” value is listed as “low polyreactivity”.
The value for “QVQLVESGGGLVQAGGSLRLSCAASGSIFQNYAMGWYRQAPGKERELVAAISWSGDTYYADSVKGRFTISRDNAKNTVYLQMNSLKPEDTAVYYCAATYPYSLYYPYYGGDYDYWGQGTQVTVSS” was “low polyreactivity”; that for “QVQLVESGGGLVQAGGSLRLSCAASGSIFQPNAMGGGGQAPGKERELVASIRGRGGDTYYADSVKGRFTISRDNAKNTVYLQMNSLKPEDTAVYYCAADYRWGQGTQVTVSS” was “low polyreactivity”.
With “QVQLVESGGGLVQAGGSLRLSCAASGSIFQPYAMGWYRPAPGKERELVAAINGRGGSTHYADSVKGRFTISRDNAKNTVYLQMNSLNPEDTAVYYCAATWAYPGSGYVYFYGNDYWGQGTQVTVSS” the entry was “high polyreactivity”; with “QVQLVESGGGLVQAGGSLRLSCAASGSIFQPYAMGWYRQAPGKEREFVAAISRSGGITYYADSVKGRFTISRDNAKNTVYLQMNSLKPEDTAVYYCATGRQVVRSYSEGDYWGQGTQVTVSS”, “low polyreactivity”.
With “QVQLVESGGGLVQAGGSLRLSCAASGSIFQPYAMGWYRQAPGKERELVATISSSGSTYYADSVKGRFTISRDNAKNTVYLQMTSLKPEDTAVYYCAAVYSDGPYNGYWLEYEYWGQGTQVTVSS” the entry was “low polyreactivity”; with “QVQLVESGGGLVQAGGSLRLSCAASGSIFQRYAMGWYRQAPGKEREFVAAISGRGGSTYYADSVKGRFTISRDNAKNTVYLQMNSLKPEDTAVYSCAADSSRFYGRPRYYYWGQGTQVTVSS”, “high polyreactivity”; with “QVQLVESGGGLVQAGGSLRLSCAASGSIFQSYAMGWYRQAPGKERELVAAIDRSGTSTYYADSVKGRFTISRDNAKNTVYLQMNSLKPEDTAVYYCNTLRRSWQMDYWGQGTQVTVSS”, “low polyreactivity”.
“QVQLVESGGGLVQAGGSLRLSCAASGSIFQSYDMGWYRQAPGKERELVAAIRSGDSTYYADSVKGRFTISRDNAKNTVYLQMNSLKPEDTAVYYCNARYGNESQGWEDYWGQGTQVTVSS”: the “polyreactivity (PSR sort gate)” value is on record as “low polyreactivity”.
The value for “QVQLVESGGGLVQAGGSLRLSCAASGSIFQSYSMGWYRQAPGKERELVAAISRGGSTYYADSVKGRFTISRDNAKNTVYLQMNSLKPEDTAVYYCAAGSGGGKYLYYYWGQGTQVTVSS” was “low polyreactivity”; that for “QVQLVESGGGLVQAGGSLRLSCAASGSIFQVYAMGWYRQAPGKETELVAAIRRRGGSTYYADSVKGRFTISRDNAKNTVYLQMNSLKPEDTAVDYCAARTVGFYRYDYWGLGTQVTVSS” was “low polyreactivity”; that for “QVQLVESGGGLVQAGGSLRLSCAASGSIFQVYAMGWYSQAPGKERELVAAITKSGVSTYYADSVKGRFTISRDNAKNTVYLQMNSLKPEDTAVYYCAAPRYVRYHRGYGFDYWGQGTQVTVSS” was “low polyreactivity”.
With “QVQLVESGGGLVQAGGSLRLSCAASGSIFQWYAMGWYRQAPGKERELVAAITISGGSTHYADSVKGRFTISRDNAKNTVYLQMNSLKPEDTAVYYCATPRYPSYDYWGQGTQVTVSS” the entry was “low polyreactivity”; with “QVQLVESGGGLVQAGGSLRLSCAASGSIFQYNAMGWYRPAPGKERELVAAISSRGGITYYADSVKGRFTISRDNAKNTVYLQMNSMKPEDTAVYDCAAVAYYSEVRWYEYWGQGTQVTVSS”, “high polyreactivity”.
Regarding “QVQLVESGGGLVQAGGSLRLSCAASGSIFQYNAMGWYRQAPGKEREFVAAISSRGGITYYADSVKGRFTISRDNAKNTVYLQMNSLKPEDTAVYYCAAEAYYSEVRWYEYWGQGTQVTVSS”, the “polyreactivity (PSR sort gate)” value is recorded as “high polyreactivity”.
The value for “QVQLVESGGGLVQAGGSLRLSCAASGSIFQYNAMGWYRQAPGKERELVAAISSRGGITYYADSVKGRFTISRDNAQNTVYLQMNSLKPEDTAVYYCAAEAYYSEVRWYEYWGQGTQVTVSS” was “high polyreactivity”; that for “QVQLVESGGGLVQAGGSLRLSCAASGSIFQYNAMGWYRQEPGKERELVATITYIGGRTYYAYSVKGRFTISRDNAKNTVYLQMNSLKPEDTAVYYCAAEYYVISSPSFYEYDYWGQGTQVTVSS” was “low polyreactivity”; that for “QVQLVESGGGLVQAGGSLRLSCAASGSIFQYYAMGWYRPAARKERELVAAISWSGGSTYYADSVKGRFTISRDNAKTTVSFLMNSLKPEDTAVYYCNARLYHLDYQGRIIRYDYWGQGTQVTESS” was “high polyreactivity”.
With “QVQLVESGGGLVQAGGSLRLSCAASGSIFQYYAMGWYRQAPGKEREFVAAISSSGGSTYYADSVKGRFTISRDNAKNTVSLQMNSLKPEDNAVYYCNTPYNGFRFDYWGQGTQVTVSS” the entry was “low polyreactivity”.
In the case of “QVQLVESGGGLVQAGGSLRLSCAASGSIFQYYTMGWYRQAPGKERELVATISRRGGTTYYADSVKGRFTISRDNAKNTVYLQMNILKPEDTAVYYCNADSRTYRYYWSYGYWGQGTQVTVSS”, the “polyreactivity (PSR sort gate)” value is recorded as “high polyreactivity”.
The value for “QVQLVESGGGLVQAGGSLRLSCAASGSIFRAYAMGWYRQAPGKERELVADISIGDNTYYADSVKGRFTISRDNAKNTVYLQMNSLKPEDTAVYYCAAVSDDVPWYWPQYTILDYWGQGTQVTVSS” was “high polyreactivity”; that for “QVQLVESGGGLVQAGGSLRLSCAASGSIFRAYAMGWYRQAPGKERELVATIRKSGGSTYYADSVKGRFTISRDNAKNTVYLQMNSLKPEDTAVYYCAARTIRYVNFYYWGQGTQVTVSS” was “high polyreactivity”.
On to “QVQLVESGGGLVQAGGSLRLSCAASGSIFRCNAMGWYRQAPGKERELVAVINSSGGSTYYADSVKGRFTISRDNAKNTVYLQMNSLKPEDTAVYYCAADLFLDGSSQYDPNWWPDGWNTYRLLGGYWGQGTQVTVSS”, for which the “polyreactivity (PSR sort gate)” value is “low polyreactivity”.
The value for “QVQLVESGGGLVQAGGSLRLSCAASGSIFRDNAMGWYRQAPGKERELVASIRSSGGRTYYADSVKGRFTISRDNANNTVYLQMNSLKPEDTAVYYCAADWIYAPWYYQESVEYYYWGQGTQVTVSS” was “low polyreactivity”.
Turning to “QVQLVESGGGLVQAGGSLRLSCAASGSIFRDYTMGWYRQAPGKERELVAAIRQDGGTTTYADSVKGRFTISRDNAKNTVYLQMNSLKPEDTAVYLWGQGTQVTVSS”, the “polyreactivity (PSR sort gate)” value is reported as “low polyreactivity”.
The value for “QVQLVESGGGLVQAGGSLRLSCAASGSIFRFYAMGWYRQAPGKERELVADISWRGGSTYYADSVTGRFTISRDNAKNTVYLQMNSLKPEDTAVYYCAADGPGKYDYWGQGTQVTVSS” was “high polyreactivity”.
